From US20020146805

Tested on: PFEK-protease T-6xHIS zymogen
Sequence (chain, as listed by the source): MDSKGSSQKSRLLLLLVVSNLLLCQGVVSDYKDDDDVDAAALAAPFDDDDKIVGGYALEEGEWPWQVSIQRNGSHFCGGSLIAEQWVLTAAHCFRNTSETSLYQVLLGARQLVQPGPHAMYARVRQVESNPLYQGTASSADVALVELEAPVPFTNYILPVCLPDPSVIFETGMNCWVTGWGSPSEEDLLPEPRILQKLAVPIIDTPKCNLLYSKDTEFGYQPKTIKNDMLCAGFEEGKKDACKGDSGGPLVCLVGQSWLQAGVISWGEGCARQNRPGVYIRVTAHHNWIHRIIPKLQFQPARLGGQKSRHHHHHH

enterokinase
cleavage of the zymogen (SDS-PAGE and anti-FLAG Western blot): quantitative cleavage of the expressed and purified zymogen to generate the processed and activated protease
